From patent publication US20150175992A1

How the values were obtained:
Assay in all cases: cell-based or functional assay
[1] = target: Bacillus subtilis XynA variant G13Y/I77M/K99Y/T104W/T110A/Y113D/R122F/K154R/N159D/Q175L (Bacillus subtilis) (UniProt P18429)
[2] = target: Bacillus subtilis xylanase variant BS3 (wildtype with D11F/R122D mutations) (Bacillus subtilis) (UniProt P18429)
[3] = target: Bacillus subtilis XynA variant G13Y/G34K/T110A/Y113D/R122D/Q175L (Bacillus subtilis) (UniProt P18429)
[4] = target: Bacillus subtilis XynA variant G13Y/T110A/Y113D/R122D/Q175L (Bacillus subtilis) (UniProt P18429)
[5] = target: Bacillus subtilis XynA variant G13Y/T110A/Y113D/R122F/Q175L (Bacillus subtilis) (UniProt P18429)
[6] = target: Bacillus subtilis XynA variant G13Y/K99Y/T104W/T110A/Y113D/R122F/K154R/N159D/Y166F/Q175L (Bacillus subtilis) (UniProt P18429)
[7] = target: Bacillus subtilis XynA variant D11F/R122D/T110A/Y113A (Bacillus subtilis) (UniProt P18429)
[8] = target: Bacillus subtilis XynA variant G13Y/K99Y/T104W/T110A/Y113D/N114D/R122F/K154R/N159D/Q175L (Bacillus subtilis) (UniProt P18429)
[9] = target: Bacillus subtilis XynA wildtype xylanase (SEQ ID No. 1) (Bacillus subtilis) (UniProt P18429)
[10] = target: Bacillus subtilis XynA variant G13Y/T110A/Y113D/R122D/S162E/Q175L (Bacillus subtilis) (UniProt P18429)
[11] = target: Bacillus subtilis XynA variant G13Y/T110A/Y113D/R122D/W164F/Q175L (Bacillus subtilis) (UniProt P18429)
[12] = target: Bacillus subtilis XynA variant G13Y/I77Y/K99Y/T104W/T110A/Y113D/R122F/K154R/N159D/Q175L (Bacillus subtilis) (UniProt P18429)
[13] = target: Bacillus subtilis XynA variant G13Y/K99Y/T104W/T110A/Y113D/N114F/R122F/K154R/N159D/Q175L (Bacillus subtilis) (UniProt P18429)
[14] = target: Bacillus subtilis XynA variant G13Y/K99Y/T104W/T110A/Y113D/R122F/K154R/N159D/Q175K (Bacillus subtilis) (UniProt P18429)
[15] = target: Bacillus subtilis XynA variant G13Y/K99Y/T104W/T110A/Y113D/R122F/K154R/N159D/Q175/V81I (Bacillus subtilis) (UniProt P18429)
[16] = target: Bacillus subtilis XynA variant D11F/R122D/T110A (Bacillus subtilis) (UniProt P18429)
[17] = target: Bacillus subtilis XynA variant G13Y/K99Y/T104W/T110A/Y113D/N114D/R122F/K154R/N159D/Q175K (Bacillus subtilis) (UniProt P18429)
[18] = target: Bacillus subtilis XynA variant G13Y/T110A/Y113D/R122D/S162D/Q175L (Bacillus subtilis) (UniProt P18429)
[19] = target: Bacillus subtilis XynA variant G13Y/I77V/K99Y/T104W/T110A/Y113D/R122F/K154R/N159D/Q175L (Bacillus subtilis) (UniProt P18429)
[20] = target: Bacillus subtilis XynA variant G13Y/I77S/K99Y/T104W/T110A/Y113D/R122F/K154R/N159D/Q175L (Bacillus subtilis) (UniProt P18429)
[21] = target: Bacillus subtilis XynA variant G13Y/K99Y/T104W/T110A/Y113D/R122F/K154R/N159D/Q175L (Bacillus subtilis) (UniProt P18429)
[22] = target: Bacillus subtilis XynA variant G13Y/I77L/K99Y/T104W/T110A/Y113D/R122F/K154R/N159D/Q175L (Bacillus subtilis) (UniProt P18429)
[23] = target: Bacillus subtilis XynA variant G13Y/K99Y/T104W/T110A/Y113D/I118V/R122F/K154R/N159D/Q175L (Bacillus subtilis) (UniProt P18429)
[24] = target: Bacillus subtilis XynA variant G13Y/K99Y/T104W/T110A/Y113D/N114Y/R122F/K154R/N159D/Q175K (Bacillus subtilis) (UniProt P18429)
[25] = target: Bacillus subtilis XynA variant G13Y/T110A/Y113D/R122D/K154R/N159D/Q175L (Bacillus subtilis) (UniProt P18429)
[26] = target: Bacillus subtilis XynA variant G13Y/K99Y/T104W/T110A/Y113D/N114Y/R122F/K154R/N159D/Q175L (Bacillus subtilis) (UniProt P18429)

Q: How did the % Activity @ 50 XIU/ml (residual xylanase activity) [1] turn out when “crude inhibitor preparation (containing both TAXI and XIP) from wheat (Triticum aestivum) flour” was run?
A: 46%

Q: And the % Activity @ 5.6 XIU/ml (residual xylanase activity) [2]?
A: 100%

Q: What about the % Activity @ 33.5 XIU/ml (residual xylanase activity) [2] of the same substance?
A: 100%

Q: And the % Activity @ 50 XIU/ml (residual xylanase activity) [2]?
A: 95%

Q: And the % Activity @ 50 XIU/ml (residual xylanase activity) [3]?
A: 97%

Q: What about the % Activity @ 33.5 XIU/ml (residual xylanase activity) [4] of the same substance?
A: 50%

Q: What about the % Activity @ 50 XIU/ml (residual xylanase activity) [5] of the same substance?
A: 65%

Q: And the % Activity @ 50 XIU/ml (residual xylanase activity) [6]?
A: 68%

Q: And the % Activity @ 5.6 XIU/ml (residual xylanase activity) [7]?
A: 99%

Q: And the % Activity @ 50 XIU/ml (residual xylanase activity) [8]?
A: 79%

Q: What about the % Activity @ 5.6 XIU/ml (residual xylanase activity) [9] of the same substance?
A: 29%

Q: What about the % Activity @ 50 XIU/ml (residual xylanase activity) [10] of the same substance?
A: 44%

Q: What about the % Activity @ 50 XIU/ml (residual xylanase activity) [11] of the same substance?
A: 29%

Q: What about the % Activity @ 50 XIU/ml (residual xylanase activity) [12] of the same substance?
A: 37%

Q: And the % Activity @ 50 XIU/ml (residual xylanase activity) [13]?
A: 79%

Q: And the % Activity @ 50 XIU/ml (residual xylanase activity) [14]?
A: 72%

Q: And the % Activity @ 50 XIU/ml (residual xylanase activity) [15]?
A: 46%

Q: And the % Activity @ 5.6 XIU/ml (residual xylanase activity) [16]?
A: 98%

Q: And the % Activity @ 33.5 XIU/ml (residual xylanase activity) [16]?
A: 100%

Q: What about the % Activity @ 50 XIU/ml (residual xylanase activity) [17] of the same substance?
A: 79%

Q: And the % Activity @ 50 XIU/ml (residual xylanase activity) [18]?
A: 40%

Q: What about the % Activity @ 50 XIU/ml (residual xylanase activity) [19] of the same substance?
A: 45%

Q: And the % Activity @ 50 XIU/ml (residual xylanase activity) [20]?
A: 20%

Q: What about the % Activity @ 50 XIU/ml (residual xylanase activity) [21] of the same substance?
A: 64%

Q: And the % Activity @ 50 XIU/ml (residual xylanase activity) [22]?
A: 75%

Q: What about the % Activity @ 50 XIU/ml (residual xylanase activity) [23] of the same substance?
A: 79%

Q: What about the % Activity @ 50 XIU/ml (residual xylanase activity) [24] of the same substance?
A: 84%

Q: What about the % Activity @ 50 XIU/ml (residual xylanase activity) [25] of the same substance?
A: 32%

Q: And the % Activity @ 50 XIU/ml (residual xylanase activity) [26]?
A: 78%
